Test results from US20230265185A1 (NATIONAL RESEARCH COUNCIL OF CANADA, published 2023).

T1: recombinant extracellular domain of the predominant human CD22-beta isoform (CD22-ECD) (human, UniProt P20273 20-687, CHO-expressed glycoprotein. Capture on an SA chip implies biotinylation, but the patent does not state it for SPR.)
T1 construct: Expressed in CHO-3E7 cells, IMAC and SEC purified, monomeric fraction; Results say it was immobilized onto a CM5 dextran chip; also called human CD22-ECD; hCD22 ecto-domain
T1 sequence: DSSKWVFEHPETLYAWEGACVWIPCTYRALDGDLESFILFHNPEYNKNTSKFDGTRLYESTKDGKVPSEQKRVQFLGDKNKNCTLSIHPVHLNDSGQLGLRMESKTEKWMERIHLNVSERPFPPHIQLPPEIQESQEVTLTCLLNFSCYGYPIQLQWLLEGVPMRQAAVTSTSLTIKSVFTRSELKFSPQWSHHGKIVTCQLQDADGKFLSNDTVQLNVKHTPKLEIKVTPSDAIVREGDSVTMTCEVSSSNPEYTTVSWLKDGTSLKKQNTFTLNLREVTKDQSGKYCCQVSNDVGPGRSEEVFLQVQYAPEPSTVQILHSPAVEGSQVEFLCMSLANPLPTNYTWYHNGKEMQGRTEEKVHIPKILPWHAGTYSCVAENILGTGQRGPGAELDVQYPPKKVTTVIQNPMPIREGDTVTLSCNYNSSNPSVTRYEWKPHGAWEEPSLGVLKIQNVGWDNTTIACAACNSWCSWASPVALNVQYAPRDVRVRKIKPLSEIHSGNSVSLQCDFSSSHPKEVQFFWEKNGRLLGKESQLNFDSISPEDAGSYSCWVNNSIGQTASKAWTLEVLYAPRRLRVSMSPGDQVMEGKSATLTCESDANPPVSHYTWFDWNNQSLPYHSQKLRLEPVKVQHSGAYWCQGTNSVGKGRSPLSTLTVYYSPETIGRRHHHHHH

T2: full-length hCD22-ECD (668aa) displayed on yeast cells (human, UniProt P20273 20-687)
T2 construct: extracellular domain; Yeast surface display fusion Aga2-HA-(insert)-MYC; also called Bin 8; CD22-ECD Full lenght; not shown: Aga2-HA display fusion partner of vector pPNL6; MYC tag
T2 sequence (looked up): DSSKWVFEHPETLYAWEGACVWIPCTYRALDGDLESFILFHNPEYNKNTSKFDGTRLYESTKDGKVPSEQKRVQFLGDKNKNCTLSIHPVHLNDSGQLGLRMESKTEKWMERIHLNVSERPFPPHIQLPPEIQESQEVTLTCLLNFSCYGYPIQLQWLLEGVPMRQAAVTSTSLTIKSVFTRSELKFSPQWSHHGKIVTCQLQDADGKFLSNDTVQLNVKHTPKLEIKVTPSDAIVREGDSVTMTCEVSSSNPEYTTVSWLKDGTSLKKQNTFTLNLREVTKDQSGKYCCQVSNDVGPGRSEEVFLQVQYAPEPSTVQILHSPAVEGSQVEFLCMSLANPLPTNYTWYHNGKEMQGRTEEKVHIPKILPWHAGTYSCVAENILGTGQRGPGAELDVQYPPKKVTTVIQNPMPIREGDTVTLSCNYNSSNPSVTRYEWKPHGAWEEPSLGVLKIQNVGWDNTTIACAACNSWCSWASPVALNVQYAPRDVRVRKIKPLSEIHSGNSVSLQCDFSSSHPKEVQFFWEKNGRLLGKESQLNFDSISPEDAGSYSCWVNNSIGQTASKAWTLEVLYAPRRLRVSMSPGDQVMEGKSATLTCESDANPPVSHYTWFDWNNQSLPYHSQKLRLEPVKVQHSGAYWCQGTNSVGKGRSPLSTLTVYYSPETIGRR

T3: hCD22 fragment Bin 1, IVR1 (aa1-135), displayed on yeast cells (human, UniProt P20273 20-154)
T3 construct: range 1-135; Range is counted on the mature ECD, not on the UniProt entry; on P20273 it would be 20-154 (my arithmetic); also called CD22 Sub-Domain 1; not shown: Aga2-HA display fusion partner of vector pPNL6; MYC tag
T3 sequence (looked up): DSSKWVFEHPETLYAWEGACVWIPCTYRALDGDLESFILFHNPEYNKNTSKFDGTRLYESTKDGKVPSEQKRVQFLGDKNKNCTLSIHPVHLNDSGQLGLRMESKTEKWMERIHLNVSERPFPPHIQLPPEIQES

T4: hCD22 fragment Bin 3, IVR3 (aa211-317), displayed on yeast cells (human, UniProt P20273 230-336)
T4 construct: Range is counted on the mature ECD, not on the UniProt entry; on P20273 it would be 230-336 (my arithmetic); not shown: Aga2-HA display fusion partner of vector pPNL6; MYC tag
T4 sequence (looked up): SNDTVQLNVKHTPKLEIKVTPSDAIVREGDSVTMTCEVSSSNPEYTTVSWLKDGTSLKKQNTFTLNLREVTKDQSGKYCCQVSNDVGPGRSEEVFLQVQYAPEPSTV


Tests used:
[1] = target: T1, recombinant extracellular domain of the …; assay: SPR, Biacore T200, VHH over immobilized CD22-ECD
Protocol: For surface Plasmon resonance, 21 selected VHHs were passed though size exclusion columns, superdex 75 (GE Healthcare), respectively, in 10 mM HEPES, pH 7.4, containing 150 mM NaCl, 3 mM EDTA, monomeric sdAb fractions were collected and protein concentrations were determined by measuring absorbance at 280 nm (A280). Analysis were performed with Biacore T200 instrument (GE Healthcare). All measurements were carried out at 25° C. in 10 mM HEPES, pH 7.4, containing 150 mM NaCl, 3 mM EDTA and 0.005% surfactant P20 (GE Healthcare). Approximately 1919 RUs of the recombinant monomeric CD22-ECD (obtained after SEC purification of the CD22-ECD) were captured on SA sensor chip (GE Healthcare) at a flow rate of 5 uL/min. Various concentration of the monomeric VHHs were injected over CD22-ECD surface, respectively using an SA surface as a reference at a flow rate of 40 µL/min. Surfaces were generated by washing with running buffer. Data were analysed with BIAevaluation 4.1 software.
The monomeric fraction of all 21 VHHs were used for SPR experiment where the human CD22-ECD was immobilized onto the CM5 dextran chip and various VHH concentration (0.6-400 nM) were passed over the sensor chip. […] All of the data collected fit a 1:1 binding model.

[2] = target: T2, full-length hCD22-ECD (668aa) displayed …; assay: yeast display cell ELISA, biotinylated sdAb 250 nM
Protocol: (§1) The YSD vector (pPNL6) was from The Pacific Northwest National Laboratory, USA. […] The HRP activity was assayed with substrate TMB (tetramethyl benzidine) according to the manufacture’s conditions and read at OD₄₅₀.
(§2) The wells that gave rise to OD₄₅₀ above 0.25 were highlighted, indicating significant antibody-antigen interactions. All the sdAbs tested except hCd22_1ug-14 were assigned to specific Bin(s).

[3] = target: T3, hCD22 fragment Bin 1, IVR1 (aa1-135), …; assay: yeast display cell ELISA
Protocol: as §1, §2

[4] = target: T4, hCD22 fragment Bin 3, IVR3 (aa211-317), …; assay: yeast display cell ELISA
Protocol: as §1, §2

Row | Kd [1] [nM] | koff [1] [s⁻¹] | kon [1] [M⁻¹ s⁻¹] | OD450 [2] [OD450] | Binder | binding result [3] | binding result [4]
1 | 9.59 | 0.00114 | 119000 | 1.42 | hCD221ug-36 (VHH, single biotin at the VHH C-terminal (biotinylation signal sequence), llama VHH, expressed in E. coli TG1, IMAC purified, monomeric SEC fraction; also called VHH # 22; 4-hCD22 1ug-36) VHH: EVQLVDSGGGLVQAGGSLRVSCEASGITFSRAAMGWYRQRPGKERERVAVVNSDSSTIYADSVKGRFTISRDNAKNTVYLQMNSLEPEDTAVYYCWSPGFGSYWGQGTQVTVSS | no binding (tested: OD450 not above 0.25; sdAb 250 nM) | no binding (tested: OD450 not above 0.25; sdAb 250 nM)
2 | 26 | 0.00386 | 148000 | 1.18 | hCD22pas-24 (VHH, single biotin at the VHH C-terminal (biotinylation signal sequence), llama VHH, expressed in E. coli TG1, IMAC purified, monomeric SEC fraction; also called VHH # 26; 8-hCD22 pas-24) VHH: QVQLVESGGGLVQAGGSLRLSCSASGITSSINSMGWHRQAPGKQRELVASIGRGGSGSTKYADSGKGRFLISRDNNKNILFLEMNSLKPEDTADYYCLEVTTDLSSYWGRGTQVTVSS | no binding (tested: OD450 not above 0.25; sdAb 250 nM) | no binding (tested: OD450 not above 0.25; sdAb 250 nM)
3 | 23.4 | 0.00369 | 158000 | 0.289 | hCD22pas-32 (VHH, single biotin at the VHH C-terminal (biotinylation signal sequence), llama VHH, expressed in E. coli TG1, IMAC purified, monomeric SEC fraction; also called VHH # 15; 6-hCD22 pas-32) VHH: QVQLVESGGGLVQAGGSLRLSCAVSGRIFRSYVLGWFRQAPGKERELVARIGWSDTYYADSVKGRFTISRDNAKNTVDLQMNSLKPEDTAVYYCAANSPPYGPQRDEFGYWGQGTQVTVSS | no binding (tested: OD450 not above 0.25; sdAb 250 nM) | no binding (tested: OD450 not above 0.25; sdAb 250 nM)
4 | 3.68 | 0.00176 | 477000 | 0.332 | hCD221ug-10 (VHH, single biotin at the VHH C-terminal (biotinylation signal sequence), llama VHH, expressed in E. coli TG1, IMAC purified, monomeric SEC fraction; also called VHH # 23; 5-hCD22 1ug-10) VHH: QVQLVESGGGLVQAGGSLSVSCTASESTFSIMMGWFRQAPGKQREMVAVINSAGSTNYADSAEGRFTISRDLAKKTVSLQMNSLKPEDTAVYYCYVDGYFGQGTQVTVSS | no binding (tested: OD450 not above 0.25; sdAb 250 nM) | no binding (tested: OD450 not above 0.25; sdAb 250 nM)
5 | 2.91 | 0.000675 | 232000 | 1.19 | hCD221ug-13 (VHH, single biotin at the VHH C-terminal (biotinylation signal sequence), llama VHH, expressed in E. coli TG1, IMAC purified, monomeric SEC fraction; also called VHH # 21; 1-hCD22 1ug-13) VHH: QVQLVESGGGLVQAGDSLRLSCAGSGGSFSSVTMAWFRQAPGKDREFVAAITWSSPSTYYADSVKGRFTISRDNAKNTVYLQMNSLKPEDTAVYYCAGGRTGRGTSADTDEYNYWGQGTQVTVSS | no binding (tested: OD450 not above 0.25; sdAb 250 nM) | no binding (tested: OD450 not above 0.25; sdAb 250 nM)
6 | 0.546 | 0.000681 | 1.25e+06 | 1.48 | hCD221ug-61 (VHH, single biotin at the VHH C-terminal (biotinylation signal sequence), llama VHH, expressed in E. coli TG1, IMAC purified, monomeric SEC fraction; also called VHH # 14; 3-hCD22 1ug-61) VHH: QVQLVESGGGLVQAGGSLRLSCAASMSSFSQYVMYWYRQAPGKQRELVATITSYSNTNYADSVKGRFTISRDNAKSIAYLQMDSLKPEDTAVYYCNAQYGSTFIRNHWDDWGQGTQVTVSS | no binding (tested: OD450 not above 0.25; sdAb 250 nM) | no binding (tested: OD450 not above 0.25; sdAb 250 nM)
7 | 250 | 0.0271 | 108000 | – | hCD22pas-64 (VHH, single biotin at the VHH C-terminal (biotinylation signal sequence), llama VHH, expressed in E. coli TG1, IMAC purified, monomeric SEC fraction; also called VHH # 25; 7-hCD22 pas-64) VHH: QVQLVESGGGLVQAGGSLRLSCAASGSTFSLNTMAWYRQAPGNQREYVAAASSDGYTNYADSVRGRFTISRDNDKNTMYLQMNSLRPEDTAVYYCTWGTGRFADYIYWGQGTQVTVSS | no binding (tested: OD450 not above 0.25; sdAb 250 nM) | no binding (tested: OD450 not above 0.25; sdAb 250 nM)
8 | 30.3 | 0.000633 | 20900 | 1.81 | hCD221ug-80 (VHH, single biotin at the VHH C-terminal (biotinylation signal sequence), llama VHH, expressed in E. coli TG1, IMAC purified, monomeric SEC fraction; also called VHH # 1; 2-hCD22 1ug-80) VHH: QVQLVESGGGLVQPGGSLRLSCTFSGFTLDYYVMVWFRQAPGKEREAVSCITSDGVTYYADSVKGRFTISRDNAKNTVYLQMNRVKPEDTAVYYCAVDKPFYDGGIQYTCPVDFDSWGQGAQVTVSS | – | no binding (tested: OD450 not above 0.25; sdAb 250 nM)
